The RNAGym collection of RNA variant scans (doi:10.7554/elife.80360)

B1: Hammerhead Ribozyme (parent)
chain: ACCGGAUGUGCUUUCCGGUCUGAUGAGUCCGUGAGGACGAAACAG

Variants of: B1
Assay: self-cleavage, relative activity (ratio to wild type); higher = more cleavage; co-transcriptional

Compared with ACCGGAUGUGCUUUCCGGUCUGAUGAGUGGGUGAGGACGAAACAG [C29G C30G], ACCGGAUCUGCUUUCCGGUCUGAUCAGUCCGUGAGGACGAAACAG [G8C G25C] is lower in self-cleavage: 0.476 for the first, 0.242 for the second.

First: ACCGGAUGUGCUUUCCGGUCUGAUGAGUCCGUGGGGACGAUACAG [A34G A41U]
Second: ACCGGAUGUGCUUUCCGGUCUGAUGAGUCCGUGGGGACGACACAG [A34G A41C]
The self-cleavage of the first is lower: 0.284 for the first, 0.302 for the second.

Going from CACGGAUGUGCUUUCCGGUCUGAUGAGUCCGUGAGGACGAAACAG [A1C C2A] to ACCGGAUGUGCUUUCCGGUCUGAUGCGUCCGUGAGCACGAAACAG [A26C G36C], the self-cleavage falls from 1.75 to 0.277.

Going from ACCGGAUCUGCUUUCAGGUCUGAUGAGUCCGUGAGGACGAAACAG [G8C C16A] to ACCGGAUGUGCUUUCCGGUCUGAUGAAUCCGUGAGGACGAAAAAG [G27A C43A], the self-cleavage falls from 0.446 to 0.347.

Going from ACCGGAUGUGCCUUCCGGUGUGAUGAGUCCGUGAGGACGAAACAG [U12C C20G] to ACCGGAUGUGCUUUCCGGCCUGAUGAGUCCGUGAGUACGAAACAG [U19C G36U], the self-cleavage rises from 0.324 to 0.443.

Compared with ACCGGAUGUGCUUUCCGGUCUGAUGUGUCCGAGAGGACGAAACAG [A26U U32A], ACCGUAUGAGCUUUCCGGUCUGAUGAGUCCGUGAGGACGAAACAG [G5U U9A] is lower in self-cleavage: 0.846 for the first, 0.723 for the second.

First: ACCGGAUGUGCUUCCCGGGCUGAUGAGUCCGUGAGGACGAAACAG [U14C U19G]
Second: ACCGGAUGUGCUUUCCGGCCUGAUGAGUCCGUGAUGACGAAACAG [U19C G35U]
The self-cleavage of the first is lower: 0.334 for the first, 0.465 for the second.

Compared with AUCGGAUGUGCUUUCCGGUCUGACGAGUCCGUGAGGACGAAACAG [C2U U24C], ACCGGAUGUGCUUUUCGGUCUGAUGAGUCCAUGAGGACGAAACAG [C15U G31A] is lower in self-cleavage: 1.35 for the first, 0.781 for the second.

Going from ACGGGAUGUGCUUUCCGGUCUGAUGAGUCCGUGAGGACGAAACAA [C3G G45A] to ACCGGAUCUGCUUUCCGGUCUGAUGAGUCCGUUAGGACGAAACAG [G8C G33U], the self-cleavage rises from 0.371 to 0.971.

First: ACCGGAUGUGCAUUCCGGUCUGAUGAGUCCGUCAGGACGAAACAG [U12A G33C]
Second: ACCGGAUGUGCUUUCCGGACUGAUGAGUCCGUGAGGAUGAAACAG [U19A C38U]
The self-cleavage of the first is higher: 1.37 for the first, 0.358 for the second.

First: ACGGGAUGUGCUUUCCGGUCUGAUGAGUCCGUGAGGACGCAACAG [C3G A40C]
Second: AGCGGAUGUGCAUUCCGGUCUGAUGAGUCCGUGAGGACGAAACAG [C2G U12A]
The self-cleavage of the first is lower: 0.284 for the first, 0.335 for the second.

Going from ACCGGAUGUGCAUUCCGGUCUGAUGACUCCGUGAGGACGAAACAG [U12A G27C] to ACCGGAUGUGCUAUGCGGUCUGAUGAGUCCGUGAGGACGAAACAG [U13A C15G], the self-cleavage rises from 0.663 to 0.895.

Compared with ACCGGAUGUGCUUUCCGAUCUGCUGAGUCCGUGAGGACGAAACAG [G18A A23C], ACCGGAUGUGCUUUCCGGUCUUGUGAGUCCGUGAGGACGAAACAG [G22U A23G] is lower in self-cleavage: 0.355 for the first, 0.297 for the second.

Compared with ACCGGAUGUGCUUUCCGGUCUGAUGAGUACGUGAGGACGAAAGAG [C29A C43G], ACCGGAUGUGGUUUCCGGUCUGAUGAGUCCGUGAGGACGAAACCG [C11G A44C] is higher in self-cleavage: 0.348 for the first, 0.769 for the second.

Compared with ACCGGAUGUGUUUUCCGGUCUGAUGAGUCCGUGAGGACGAGACAG [C11U A41G], ACCGGAUGUGCUUUCCGGUCUGAUCAGUCCGUGAGGACGAGACAG [G25C A41G] is lower in self-cleavage: 0.386 for the first, 0.359 for the second.

Compared with ACCGGAUGUGCUUUCCGGUCUGAUGAGUUCGUGAGGACAAAACAG [C29U G39A], CCCGGAUGUGCUUCCCGGUCUGAUGAGUCCGUGAGGACGAAACAG [A1C U14C] is lower in self-cleavage: 0.406 for the first, 0.331 for the second.

First: ACCCGAUGUGCUUUCCGGUCUGAUGAGUCCGUGAGGACGAAACAA [G4C G45A]
Second: ACCGGAUGUGUUUUCCGGUCUGAUGAUUCCGUGAGGACGAAACAG [C11U G27U]
The self-cleavage of the first is lower: 0.355 for the first, 0.487 for the second.

Going from ACCGGAUGUGUUUUCCGGUCUGAUGAGUCCGUGAGGACGAAUCAG [C11U A42U] to ACCGGAUGUGCUUUCCGGUCAGAUGGGUCCGUGAGGACGAAACAG [U21A A26G], the self-cleavage falls from 0.377 to 0.346.

Compared with ACCGGAUGUGCUUUCCGGUCUUAUGAGUCCGUGAGGACGAAACAU [G22U G45U], ACCGGAUGUGGUUUCCGGUCUGAUGAGUCCGUGGGGACGAAACAG [C11G A34G] is higher in self-cleavage: 0.428 for the first, 1.06 for the second.

Compared with ACCGGAUGUGCUUUCCGGUCUGAUGAGUCCGGGAGUACGAAACAG [U32G G36U], ACCGGAUGUGCUUUCCGGUCUGAUGAGUCCGUGAGGAGGAAAUAG [C38G C43U] is lower in self-cleavage: 0.398 for the first, 0.393 for the second.

Going from ACCGGAUGUGCUUUCCGGUCUGAUGAGUCCGUGAAGACGUAACAG [G35A A40U] to ACCGGAUGUGCUUUCCGGUCUGAUGAGUCCGUGAGAACGUAACAG [G36A A40U], the self-cleavage rises from 0.317 to 0.384.

Going from ACCGCAUGUGCUUUCCGGUCUGAUGAGUCCGAGAGGACGAAACAG [G5C U32A] to ACCGGAUGUGCUUUCCGGUCUGAUGAGUCCGUGAGGACGGAACAG [A40G], the self-cleavage falls from 0.549 to 0.4.

Going from GCCGGAUGUGCUUUACGGUCUGAUGAGUCCGUGAGGACGAAACAG [A1G C15A] to AGCGGAUGUGCUUUCCGGUCUGAUGAGUCCGUGAGGACGAAACGG [C2G A44G], the self-cleavage falls from 1.06 to 0.627.

Going from ACCGGAUGUGCGUUCCGGUCUGAUGAGUCCGUUAGGACGAAACAG [U12G G33U] to ACCGGAUGUGCUUUGCGGUCUGAUGAAUCCGUGAGGACGAAACAG [C15G G27A], the self-cleavage falls from 1.2 to 0.464.

First: ACCGGAUGUGCUAUCCGGUCUGAUGAGGCCGUGAGGACGAAACAG [U13A U28G]
Second: AACGGAUGUGCUUUCCGGUCUGAUUAGUCCGUGAGGACGAAACAG [C2A G25U]
The self-cleavage of the first is higher: 1.4 for the first, 0.323 for the second.

Going from ACCGGAUGUGCUUUCCGGUCUGAUGAGUGCGUGAGGACGAAUCAG [C29G A42U] to ACCGGAUGUGCUUUCCAGUCUGAUGAAUCCGUGAGGACGAAACAG [G17A G27A], the self-cleavage rises from 0.394 to 0.51.

Going from ACCGGUUGUGCUUUCCGGUCAGAUGAGUCCGUGAGGACGAAACAG [A6U U21A] to ACCGUAUGUGCUUUCCGGUCUGAUGAGUCCGUGAGGACGAAACUG [G5U A44U], the self-cleavage falls from 0.517 to 0.391.

Compared with ACCGGAUGUGCCUUCCGGUCCGAUGAGUCCGUGAGGACGAAACAG [U12C U21C], ACCCGAUGUGCUUUCCGGUCUGUUGAGUCCGUGAGGACGAAACAG [G4C A23U] is lower in self-cleavage: 0.792 for the first, 0.314 for the second.

ACCGGAUGUGCUUUCCGGUCUGAUGAGUCCGAGAGGAGGAAACAG [U32A C38G] gave a self-cleavage of 0.733.
